# ± gives the uncertainty stated by the source.
# B1: LIM and senescent cell antigen-like-containing domain protein 2, residues 13 to 71; numbered along this chain, Q7Z4I7 (parent)
# chain: AVCQRCQARFSPAERIVNSNGELYHEHCFVCAQCFRPFPEGLFYEFEGRKYCEHDFQML
# Variants of: B1
# Test: abundance fitness (aPCA) (normalised: wild type 0, dead -1); higher = more abundant; growth selection in yeast, the domain comes from the species named
# Details: Homo sapiens
row,Variant,abundance fitness
1,AVCQRCQARFSPAERIVNSNGEMYHEHCFVCAQCFRPFPEGLFYEFEGRKYCEHDFQML [L23M],0.067 ± 0.051
2,AVCQRCQARFSPAERIVNSNGERYHEHCFVCAQCFRPFPEGLFYEFEGRKYCEHDFQML [L23R],0.017 ± 0.037
3,AVCQRCQARFSPAERIVNSNGENYHEHCFVCAQCFRPFPEGLFYEFEGRKYCEHDFQML [L23N],-0.076 ± 0.11
4,AVCQRCQARFSPAERIVNSNGEKYHEHCFVCAQCFRPFPEGLFYEFEGRKYCEHDFQML [L23K],-0.013 ± 0.055
5,AVCQRCQARFSPAERIVNSNGEHYHEHCFVCAQCFRPFPEGLFYEFEGRKYCEHDFQML [L23H],0.238 ± 0.088
6,AVCQRCQARFSPAERIVNSNGEWYHEHCFVCAQCFRPFPEGLFYEFEGRKYCEHDFQML [L23W],-0.168 ± 0.055
7,AVCQRCQARFSPAERIVNSNGEDYHEHCFVCAQCFRPFPEGLFYEFEGRKYCEHDFQML [L23D],-0.106 ± 0.12
8,AVCQRCQARFSPAERIVNSNGEFYHEHCFVCAQCFRPFPEGLFYEFEGRKYCEHDFQML [L23F],-0.082 ± 0.1
9,AVCQRCQARFSPAERIVNSNGEAYHEHCFVCAQCFRPFPEGLFYEFEGRKYCEHDFQML [L23A],0.001 ± 0.052
10,AVCQRCQARFSPAERIVNSNGEPYHEHCFVCAQCFRPFPEGLFYEFEGRKYCEHDFQML [L23P],0.027 ± 0.054
11,AVCQRCQARFSPAERIVNSNLELYHEHCFVCAQCFRPFPEGLFYEFEGRKYCEHDFQML [G21L],-0.17 ± 0.06
12,AVCQRCQARFSPAERIVNSNYELYHEHCFVCAQCFRPFPEGLFYEFEGRKYCEHDFQML [G21Y],-0.518 ± 0.14
13,AVCQRCQARFSPAERIVNSNVELYHEHCFVCAQCFRPFPEGLFYEFEGRKYCEHDFQML [G21V],-0.45 ± 0.071
14,AVCQRCQARFSPAERIVNSNPELYHEHCFVCAQCFRPFPEGLFYEFEGRKYCEHDFQML [G21P],-0.457 ± 0.11
15,AVCQRCQARFSPAERIVNSNNELYHEHCFVCAQCFRPFPEGLFYEFEGRKYCEHDFQML [G21N],-0.063 ± 0.11
16,AVCQRCQARFSPAERIVNSNHELYHEHCFVCAQCFRPFPEGLFYEFEGRKYCEHDFQML [G21H],-0.178 ± 0.087
17,AVCQRCQARFSPAERIVNSNIELYHEHCFVCAQCFRPFPEGLFYEFEGRKYCEHDFQML [G21I],-0.947 ± 0.36
18,AVCQRCQARFSPAERIVNSNMELYHEHCFVCAQCFRPFPEGLFYEFEGRKYCEHDFQML [G21M],-0.328 ± 0.11
19,AVCQRCQARFSPAERIVNSNRELYHEHCFVCAQCFRPFPEGLFYEFEGRKYCEHDFQML [G21R],-0.332 ± 0.073
20,AVCQRCQARFSPAERIVNSNAELYHEHCFVCAQCFRPFPEGLFYEFEGRKYCEHDFQML [G21A],-0.045 ± 0.066
21,AVCQRCQARFSPAERIVNSNDELYHEHCFVCAQCFRPFPEGLFYEFEGRKYCEHDFQML [G21D],-0.324 ± 0.12
22,AVCQRCQARFSPAERIVNSNQELYHEHCFVCAQCFRPFPEGLFYEFEGRKYCEHDFQML [G21Q],-0.2 ± 0.11
23,AVCQRCQARFSPAERIVNSNKELYHEHCFVCAQCFRPFPEGLFYEFEGRKYCEHDFQML [G21K],-0.016 ± 0.12

row,Variant,abundance fitness
1,AVCQRCQARFSPAERIVNSNFELYHEHCFVCAQCFRPFPEGLFYEFEGRKYCEHDFQML [G21F],-0.4 ± 0.097
2,AVCQRCQARFSPAERIVNSNSELYHEHCFVCAQCFRPFPEGLFYEFEGRKYCEHDFQML [G21S],-0.054 ± 0.063
3,AVCQRCQARFSPAERIVNSNEELYHEHCFVCAQCFRPFPEGLFYEFEGRKYCEHDFQML [G21E],0.053 ± 0.13
4,AVCQRCQARFSPAERIVNSNCELYHEHCFVCAQCFRPFPEGLFYEFEGRKYCEHDFQML [G21C],-0.435 ± 0.13
5,AVCQRCQARFSPAERIVNSNWELYHEHCFVCAQCFRPFPEGLFYEFEGRKYCEHDFQML [G21W],-0.752 ± 0.2
6,AVCQRCQARFSPAERIVNSNGWLYHEHCFVCAQCFRPFPEGLFYEFEGRKYCEHDFQML [E22W],-0.31 ± 0.088
7,AVCQRCQARFSPAERIVNSNGMLYHEHCFVCAQCFRPFPEGLFYEFEGRKYCEHDFQML [E22M],-0.093 ± 0.11
8,AVCQRCQARFSPAERIVNSNGQLYHEHCFVCAQCFRPFPEGLFYEFEGRKYCEHDFQML [E22Q],0.216 ± 0.075
9,AVCQRCQARFSPAERIVNSNGRLYHEHCFVCAQCFRPFPEGLFYEFEGRKYCEHDFQML [E22R],0.537 ± 0.053
10,AVCQRCQARFSPAERIVNSNGSLYHEHCFVCAQCFRPFPEGLFYEFEGRKYCEHDFQML [E22S],-0.093 ± 0.057
11,AVCQRCQARFSPAERIVNSNGVLYHEHCFVCAQCFRPFPEGLFYEFEGRKYCEHDFQML [E22V],-0.098 ± 0.091
12,AVCQRCQARFSPAERIVNSNGDLYHEHCFVCAQCFRPFPEGLFYEFEGRKYCEHDFQML [E22D],-0.598 ± 0.24
13,AVCQRCQARFSPAERIVNSNGNLYHEHCFVCAQCFRPFPEGLFYEFEGRKYCEHDFQML [E22N],0.053 ± 0.1
14,AVCQRCQARFSPAERIVNSNGFLYHEHCFVCAQCFRPFPEGLFYEFEGRKYCEHDFQML [E22F],0.133 ± 0.12
15,AVCQRCQARFSPAERIVNSNGTLYHEHCFVCAQCFRPFPEGLFYEFEGRKYCEHDFQML [E22T],-0.006 ± 0.075
16,AVCQRCQARFSPAERIVNSNGILYHEHCFVCAQCFRPFPEGLFYEFEGRKYCEHDFQML [E22I],-0.162 ± 0.1
17,AVCQRCQARFSPAERIVNSNGHLYHEHCFVCAQCFRPFPEGLFYEFEGRKYCEHDFQML [E22H],0.101 ± 0.096
18,AVCQRCQARFSPAERIVNSNGALYHEHCFVCAQCFRPFPEGLFYEFEGRKYCEHDFQML [E22A],0.079 ± 0.091
19,AVCQRCQARFSPAERIVNSNGKLYHEHCFVCAQCFRPFPEGLFYEFEGRKYCEHDFQML [E22K],-0.01 ± 0.09
20,AVCQRCQARFSPAERIVNSNGCLYHEHCFVCAQCFRPFPEGLFYEFEGRKYCEHDFQML [E22C],0.056 ± 0.1
21,AVCQRCQARFSPAERIVNSNGGLYHEHCFVCAQCFRPFPEGLFYEFEGRKYCEHDFQML [E22G],-0.096 ± 0.11
22,AVCQRCQARFSPAERIVNSNGYLYHEHCFVCAQCFRPFPEGLFYEFEGRKYCEHDFQML [E22Y],-0.08 ± 0.1
